{"source": "patent US20240383988A1", "binders": {"B1": {"name": "ER-2b (antibody, part only; not given: common light chain, V domains shown, part only)", "VH": "EVQLVESGGGLVQPGGSLRLSCAASGFNIYYAAMHWVRQAPGKGLEWVAFISPYYSYTSYADSVKGRFTISADTSKNTAYLQMNSLRAEDTAVYYCARYFHSSWYESSSPRAYYPGMDYWGQGTLVTVSS"}}, "key": {"human EGFR (human) [1]": {"target": "human EGFR (human) (UniProt P00533)", "experiment": "kinetics table of FIG. 2 (SPR is told in paragraph 123 for the other clones of the table); column head 10^-4 (s-1)"}, "human EGFR (human) [2]": {"target": "human EGFR (human) (UniProt P00533)", "experiment": "kinetics table of FIG. 2 (SPR is told in paragraph 123 for the other clones of the table); column head 10^5 (s-1M-1)"}}}
{"binder": "B1", "values": [{"measurement": "koff", "setting": "human EGFR (human) [1]", "result": "5e-05", "unit": "s⁻¹"}, {"measurement": "kon", "setting": "human EGFR (human) [2]", "result": 280000, "unit": "M⁻¹ s⁻¹"}]}
